The target of assay [1] is T1, human BAFF (human, UniProt Q9Y275 134-285, limits assumed).
T1 construct: also called hu BAFF; hBAFF
In words: SPR (ProteOn XPR36), compound captured on goat anti-human IgG Fc, antigen injected. On the procedure:
(§1) SPR experiments were performed on a ProteOn XPR36 instrument (Bio Rad). A GLM chip was preconditioned with sequential injections of 60 sec of 0.5% SDS, 50 mM NaOH, and 100 mM HCl at a flow rate of 30 μl/min both vertical and horizontal directions.
(§2) The preconditioned GLM chip was then activated by an injection of EDC (76.7 mg/ml) and sulfo-NHS (21.7 mg/ml) mixture with ratio of 1:1 in 6 horizontal channels. Goat-anti-human IgG (GAHA) Fc gamma (Invitrogen) at a concentration of 30 μg/ml in 10 mM, pH 5.0 sodium acetate buffer was immobilized to 8,000 resonance units on the activated GLM chip in 6 horizontal channels. The chip was finally deactivated with 1 M ethanolamine HCl in 6 horizontal channels. The prepared GAHA chip was rotated to vertical direction to capture test compounds, over 5 vertical channels and the last channel was used as a column reference. The captured chip was then rotated again to the horizontal direction for binding. […] The dissociation was allowed for 2 hour. The GAHA surface was regenerated using short pulse injection (18 seconds) of 0.85% phosphoric acid (Bio Rad) at a flow rate of 100 μl/min both horizontal and vertical directions after 10 min association and 2 hr dissociation. The regenerated GAHA was ready for another binding cycle.

In the next assay the target is T2, cynomolgus BAFF (cynomolgus, UniProt A0A2K5V2X4 134-285).
T2 construct: construct not described
The assay is described as above. On the procedure:
as §1, §2

Assay [2] concerns the target T3, Linked human IL-23 (Boehringer Ingelheim Pharmaceuticals, Inc.) (human, UniProt P29460 23-328).
T3 sequence 1: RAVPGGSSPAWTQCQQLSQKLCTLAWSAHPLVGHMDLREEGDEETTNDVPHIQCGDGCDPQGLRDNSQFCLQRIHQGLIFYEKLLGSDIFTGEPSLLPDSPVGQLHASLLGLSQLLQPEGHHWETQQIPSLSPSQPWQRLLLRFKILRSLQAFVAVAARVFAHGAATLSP
T3 sequence 2: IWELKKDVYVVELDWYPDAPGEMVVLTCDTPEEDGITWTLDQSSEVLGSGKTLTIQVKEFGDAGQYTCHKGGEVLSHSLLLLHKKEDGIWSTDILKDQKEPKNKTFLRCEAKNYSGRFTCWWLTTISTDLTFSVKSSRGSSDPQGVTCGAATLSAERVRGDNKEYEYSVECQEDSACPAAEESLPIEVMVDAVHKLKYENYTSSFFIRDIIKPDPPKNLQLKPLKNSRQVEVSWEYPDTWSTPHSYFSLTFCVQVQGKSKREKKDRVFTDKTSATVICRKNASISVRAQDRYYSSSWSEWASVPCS
Described as above. On the procedure:
as §1, §2

In assay [3] the target is T4, cynomolgus IL-23 (cynomolgus, UniProt H6WS56 20-189). The assay is described as above. On the procedure: as §1, §2
Assay [4] concerns the target T1, human BAFF. The assay can be described thus: BLI (Octet RED96, streptavidin tips), compound incubated 48 h at 37 C in whole blood vs kinetic buffer. On the procedure:
(§3) A whole blood interference assay was developed on an Octet RED96 to detect the effects of non-specific binding or off-target binding for compounds in the presence of whole blood (WB). The compound solutions in whole blood and 1× kinetic running buffer (1×kb) were incubated at a temperature of 37° C. for 48 hours. Kinetic measurements for the incubated compound samples were performed with an Octet RED96 equipped with streptavidin (SA) biosensor tips (ForteBio, Menlo Park, Calif.) at 27° C. The ratio of the on-rates/binding signals in buffer and whole blood were reported. A ratio <2 was considered to show no interference.
In general terms: Biolayer interferometry detects binding as a change in optical thickness at a sensor tip.

The target in assay [5] is T5, Recombinant human IL-23 (human, UniProt P29460 23-328).
T5 construct: also called hu IL23
T5 sequence 1: T3 sequence 1
T5 sequence 2: T3 sequence 2
The assay is described as above. On the procedure: as §3

In assay [6] the target is Recombinant human BAFF 60mer (Boehringer Ingelheim Pharmaceuticals, Inc.) (human, UniProt Q9Y275 134-285, limits assumed). In words: cell-based or functional assay.
The target in assay [7] is Recombinant human BAFF trimer (Boehringer Ingelheim Pharmaceuticals, Inc.) (human, UniProt Q9Y275 134-285, limits assumed). The assay can be described thus: cell-based or functional assay.
The target in assay [8] is T5, Recombinant human IL-23. The assay can be described thus: cell-based or functional assay.
Assay [9] has as its target T4, cynomolgus IL-23. The assay can be described thus: cell-based or functional assay.
In assay [10] the target is T5, Recombinant human IL-23. The assay can be described thus: cell-based or functional assay. This is another data set of the same source.

B1: Compound F (bispecific antibody, human IgG4 S228P, kappa)
chain 1: DIQMTQSPSSLSASVGDRVTITCKASRDVAIAVAWYQQKPGKVPKLLIYWASTRHTGVPSRFSGSGSRTDFTLTISSLQPEDVADYFCHQYSSYPFTFGSGTKLEIKGGGSGGGGQVQLQQSGAEVKKPGSSVRVSCKASGGTFNNNAINWVRQAPGQGLEWMGGIIPMFGTAKYSQNFQGRVAITADESTGTASMELSSLRSEDTAVYYCARSRDLLLFPHHALSPWGRGTMVTVSSLGGGSGASTKGPSVFPLAPCSRSTSESTAALGCLVKDYFPEPVTVSWNSGALTSGVHTFPAVLQSSGLYSLSSVVTVPSSSLGTKTYTCNVDHKPSNTKVDKRVESKYGPPCPPCPAPEFLGGPSVFLFPPKPKDTLYITREPEVTCVVVDVSQEDPEVQFNWYVDGVEVHNAKTKPREEQFNSTYRVVSVLTVLHQDWLNGKEYKCKVSNKGLPSSIEKTISKAKGQPREPQVYTLPPSQEEMTKNQVSLTCLVKGFYPSDIAVEWESNGQPENNYKTTPPVLDSDGSFFLYSRLTVDKSRWQEGNVFSCSVMHEALHNHYTQKSLSLSLG
chain 2: SSELTQDPAVSVALGQTVRVTCQGDSLRSYYASWYQQKPGQAPVLVIYGKNNRPSGIPDRFSGSSSGNTASLTITGAQAEDEADYYCSSRDSSGNHWVFGGGTELTVLGGGSGGGGQVQLVQSGAEVKKPGSSVKVSCKASGYTFTDQTIHWMRQAPGQGLEWIGYIYPRDDSPKYNENFKGKVTITADKSTSTAYMELSSLRSEDTAVYYCAIPDRSGYAWFIYWGQGTLVTVSSLGGGSGRTVAAPSVFIFPPSDEQLKSGTASVVCLLNNFYPREAKVQWKVDNALQSGNSQESVTEQDSKDSTYSLSSTLTLSKADYEKHKVYACEVTHQGLSSPVTKSFNRGEC
notes: Large chain: IL23A(1) VL - BAFF(1) VH - LGGGSG - IgG4-Pro-YTE; small chain: BAFF(1) VL - IL23A(1) VH - LGGGSG - CL
The Kd is the concentration at which binding is half-saturated. A high value points to a looser complex. In the case of B1, the Kd (in the assay with human BAFF [1]; with cynomolgus BAFF; in [2]; in the assay with cynomolgus IL-23 [3]) was under 15 pM throughout. The figures for the “Ratio of binding signal in WB/kinetic buffer” value (shortened to “Ratio of binding signal”) with human BAFF [4] and with Recombinant human IL-23 [5] were 1 and 1.2, respectively. Further, the “IC50, NFkB luciferase reporter, human BAFFR-CHO cells” value was determined as 1300 pM in assay [6] and 72 pM in assay [7]. For the same molecule, the figures for the “IC90, NFkB luciferase reporter, human BAFFR-CHO cells” value in [6] and in [7] were 7390 pM and 293 pM, respectively.

B2: Compound E (bispecific antibody, human IgG1, kappa, L234A L235A)
chain 1: SSELTQDPAVSVALGQTVRVTCQGDSLRSYYASWYQQKPGQAPVLVIYGKNNRPSGIPDRFSGSSSGNTASLTITGAQAEDEADYYCSSRDSSGNHWVFGGGTELTVLGGGSGGGGQVQLVQSGAEVKKPGSSVKVSCKASGYTFTDQTIHWMRQAPGQGLEWIGYIYPRDDSPKYNENFKGKVTITADKSTSTAYMELSSLRSEDTAVYYCAIPDRSGYAWFIYWGQGTLVTVSSLGGGSGASTKGPSVFPLAPSSKSTSGGTAALGCLVKDYFPEPVTVSWNSGALTSGVHTFPAVLQSSGLYSLSSVVTVPSSSLGTQTYICNVNHKPSNTKVDKRVEPKSCDKTHTCPPCPAPEAAGGPSVFLFPPKPKDTLYITREPEVTCVVVDVSHEDPEVKFNWYVDGVEVHNAKTKPREEQYNSTYRVVSVLTVLHQDWLNGKEYKCKVSNKALPAPIEKTISKAKGQPREPQVYTLPPSREEMTKNQVSLTCLVKGFYPSDIAVEWESNGQPENNYKTTPPVLDSDGSFFLYSKLTVDKSRWQQGNVFSCSVMHEALHNHYTQKSLSLSPG
chain 2: DIQMTQSPSSLSASVGDRVTITCKASRDVAIAVAWYQQKPGKVPKLLIYWASTRHTGVPSRFSGSGSRTDFTLTISSLQPEDVADYFCHQYSSYPFTFGSGTKLEIKGGGSGGGGQVQLQQSGAEVKKPGSSVRVSCKASGGTFNNNAINWVRQAPGQGLEWMGGIIPMFGTAKYSQNFQGRVAITADESTGTASMELSSLRSEDTAVYYCARSRDLLLFPHHALSPWGRGTMVTVSSLGGGSGRTVAAPSVFIFPPSDEQLKSGTASVVCLLNNFYPREAKVQWKVDNALQSGNSQESVTEQDSKDSTYSLSSTLTLSKADYEKHKVYACEVTHQGLSSPVTKSFNRGEC
B2: the Kd (in the assay with human BAFF [1]; in the assay with cynomolgus BAFF; in [2]; with cynomolgus IL-23 [3]) was under 15 pM each time. The entries for the “Ratio of binding signal” value in the assay with human BAFF [4] and with Recombinant human IL-23 [5] were 1 and 1.1, respectively.

B3: Compound C (bispecific antibody, human IgG1, kappa, L234A L235A)
chain 1: DIQMTQSPSSLSASVGDRVTITCKASRDVAIAVAWYQQKPGKVPKLLIYWASTRHTGVPSRFSGSGSRTDFTLTISSLQPEDVADYFCHQYSSYPFTFGSGTKLEIKGGGSGGGGQVQLVQSGAEVKKPGASVKVSCKASGYSFSTFFIHWVRQRPGQGLEWIGRIDPNSGATKYNEKFESKVTLTRDTSISTAYMELSRLRSDDTAVYYCARGEDLLIRTDALDYWGQGTSVTVSSLGGGSGASTKGPSVFPLAPSSKSTSGGTAALGCLVKDYFPEPVTVSWNSGALTSGVHTFPAVLQSSGLYSLSSVVTVPSSSLGTQTYICNVNHKPSNTKVDKRVEPKSCDKTHTCPPCPAPEAAGGPSVFLFPPKPKDTLYITREPEVTCVVVDVSHEDPEVKFNWYVDGVEVHNAKTKPREEQYNSTYRVVSVLTVLHQDWLNGKEYKCKVSNKALPAPIEKTISKAKGQPREPQVYTLPPSREEMTKNQVSLTCLVKGFYPSDIAVEWESNGQPENNYKTTPPVLDSDGSFFLYSKLTVDKSRWQQGNVFSCSVMHEALHNHYTQKSLSLSPG
chain 2: DIQMTQSPSSLSASVGDRVSITCKASQNAGIDVAWFQQKPGKAPKLLIYSKSNRYTGVPSRFSGSGSGTDFTLTISSLQPEDFADYYCLQYRSYPRTFGGGTKLEIKGGGSGGGGQVQLVQSGAEVKKPGSSVKVSCKASGYTFTDQTIHWMRQAPGQGLEWIGYIYPRDDSPKYNENFKGKVTITADKSTSTAYMELSSLRSEDTAVYYCAIPDRSGYAWFIYWGQGTLVTVSSLGGGSGRTVAAPSVFIFPPSDEQLKSGTASVVCLLNNFYPREAKVQWKVDNALQSGNSQESVTEQDSKDSTYSLSSTLTLSKADYEKHKVYACEVTHQGLSSPVTKSFNRGEC
notes: Tetravalent format
In the case of B3, the Kd (with human BAFF [1]; with cynomolgus BAFF; in assay [2]; in the assay with cynomolgus IL-23 [3]) was under 15 pM each time. The “Ratio of binding signal” value with human BAFF [4] came out at 1.1; with Recombinant human IL-23 [5], 1.3. Also, in the assay with Recombinant human IL-23 [8], the “IC50, STAT3-luciferase reporter in DB lymphoblast B cells” value came out at 189 pM. Besides, in the assay with Recombinant human IL-23 [8], the “IC90, STAT3-luciferase reporter in DB lymphoblast B cells” value stood at 2330 pM. Moreover, the results for the “IC50, IL-23-induced mouse IL-17 release from mouse splenocytes” value with cynomolgus IL-23 [9] and with Recombinant human IL-23 [10] were 110 pM and 133 pM, respectively. Also, the “IC90, IL-23-induced mouse IL-17 release from mouse splenocytes” value came out at 880 pM in the assay with cynomolgus IL-23 [9] and 761 pM with Recombinant human IL-23 [10]. The “IC50, NFkB luciferase reporter, human BAFFR-CHO cells” value stood at 6 pM in assay [6] and 35 pM in assay [7]. The “IC90, NFkB luciferase reporter, human BAFFR-CHO cells” value in assay [6] amounted to 14 pM; in assay [7], 110 pM.

For the origin of these results see patent US20210107998A1 (Boehringer Ingelheim, published 2021).
